Literature values as cited in publication PMC7228847.

Target: SEMA6A ECD (Mus musculus) (UniProt O35464)
Sequence (O35464 19-649): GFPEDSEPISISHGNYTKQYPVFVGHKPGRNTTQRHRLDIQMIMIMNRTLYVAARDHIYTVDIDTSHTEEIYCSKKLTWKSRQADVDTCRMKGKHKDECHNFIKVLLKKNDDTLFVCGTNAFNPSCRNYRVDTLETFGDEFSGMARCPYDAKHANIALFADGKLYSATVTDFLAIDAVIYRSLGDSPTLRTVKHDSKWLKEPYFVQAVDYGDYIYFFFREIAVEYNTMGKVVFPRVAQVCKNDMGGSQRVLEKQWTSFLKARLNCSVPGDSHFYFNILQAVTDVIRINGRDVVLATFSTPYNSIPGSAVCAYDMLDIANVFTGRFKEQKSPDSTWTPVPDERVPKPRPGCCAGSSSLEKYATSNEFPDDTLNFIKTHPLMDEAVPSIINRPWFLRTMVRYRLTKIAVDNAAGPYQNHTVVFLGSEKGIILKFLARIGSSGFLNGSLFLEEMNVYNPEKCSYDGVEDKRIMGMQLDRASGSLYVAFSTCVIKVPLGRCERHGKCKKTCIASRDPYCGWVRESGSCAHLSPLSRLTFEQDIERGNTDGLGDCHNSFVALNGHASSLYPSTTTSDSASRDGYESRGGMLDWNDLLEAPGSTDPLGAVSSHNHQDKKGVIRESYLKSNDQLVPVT

Sequence of PlexinA2 (P70207 35-1237): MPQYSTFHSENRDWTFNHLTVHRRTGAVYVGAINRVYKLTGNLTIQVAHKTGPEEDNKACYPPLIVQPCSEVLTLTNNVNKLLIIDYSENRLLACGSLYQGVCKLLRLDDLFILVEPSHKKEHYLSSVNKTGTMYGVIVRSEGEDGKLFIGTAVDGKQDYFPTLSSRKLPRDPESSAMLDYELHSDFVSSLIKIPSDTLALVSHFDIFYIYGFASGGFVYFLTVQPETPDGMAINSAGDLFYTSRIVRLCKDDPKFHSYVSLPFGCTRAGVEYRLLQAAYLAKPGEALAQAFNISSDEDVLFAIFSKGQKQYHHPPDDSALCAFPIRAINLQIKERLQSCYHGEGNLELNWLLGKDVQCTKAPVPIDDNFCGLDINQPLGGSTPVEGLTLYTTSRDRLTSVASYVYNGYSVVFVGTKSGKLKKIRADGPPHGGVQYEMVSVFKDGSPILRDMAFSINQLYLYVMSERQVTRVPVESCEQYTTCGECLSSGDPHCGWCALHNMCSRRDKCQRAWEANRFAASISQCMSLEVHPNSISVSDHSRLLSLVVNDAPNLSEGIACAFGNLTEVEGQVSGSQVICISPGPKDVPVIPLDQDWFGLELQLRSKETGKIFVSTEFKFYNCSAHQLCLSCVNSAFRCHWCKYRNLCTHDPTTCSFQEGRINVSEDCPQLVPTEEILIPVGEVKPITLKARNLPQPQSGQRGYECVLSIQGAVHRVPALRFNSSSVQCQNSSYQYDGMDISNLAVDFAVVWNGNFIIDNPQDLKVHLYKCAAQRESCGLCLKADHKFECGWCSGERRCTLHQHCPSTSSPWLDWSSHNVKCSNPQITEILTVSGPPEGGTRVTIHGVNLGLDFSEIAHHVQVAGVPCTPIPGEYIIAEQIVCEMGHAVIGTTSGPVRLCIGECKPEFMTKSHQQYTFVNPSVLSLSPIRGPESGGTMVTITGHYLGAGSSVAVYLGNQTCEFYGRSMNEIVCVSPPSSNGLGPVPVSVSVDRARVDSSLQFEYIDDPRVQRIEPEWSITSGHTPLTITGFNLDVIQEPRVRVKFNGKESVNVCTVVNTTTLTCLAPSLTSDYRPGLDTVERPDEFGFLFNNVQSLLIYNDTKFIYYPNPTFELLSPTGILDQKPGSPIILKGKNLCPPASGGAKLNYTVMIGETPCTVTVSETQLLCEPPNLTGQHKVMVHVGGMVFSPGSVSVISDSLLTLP

## PlexinA2 (from UniProt P70207)
  Kd: 2300 nM
